Publication doi:10.1101/2023.12.21.572878
“And” between values parts separate entries of the source, which are not always exact repeats. Identical values can stand only once.

Tests used:
[1] = biological target: Dimeric kinesin K401-BIO-H6 (Drosophila | E. coli) (UniProt P17210); assay: mass photometry
Streptavidin = Streptavidin (UniProt P22629); assay: mass photometry
Streptavidin, sequence (P22629 25-183): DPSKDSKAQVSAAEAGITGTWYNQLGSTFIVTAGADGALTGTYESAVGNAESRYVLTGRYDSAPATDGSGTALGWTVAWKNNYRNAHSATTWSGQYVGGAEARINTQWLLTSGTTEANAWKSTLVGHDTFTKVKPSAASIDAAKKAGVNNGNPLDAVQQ

Dimeric kinesin K401-BIO-H6 (from UniProt P17210 1-401)
stoichiometry N [1]: 2 | stoichiometry N (kinesin dimers per streptavidin tetramer) (Streptavidin): 1 and 2 and 3
